Laboratory results from patent publication US20210032352A1 (ANTERA THERAPEUTICS, published 2021).

Tests used:
Experiment in all cases: kinetic table (called BLI in paragraph 35); quantity name and unit not printed in the table: KD in M follows from FIG. 12A
[1] = biological target: T1, human LRP6 ECD, Fc-tagged (human, UniProt O75581 20-1370)
T1 construct: extracellular domain; Bought; also called LRP co-receptor; not shown: Fc tag of the purchased fusion
T1 sequence (looked up): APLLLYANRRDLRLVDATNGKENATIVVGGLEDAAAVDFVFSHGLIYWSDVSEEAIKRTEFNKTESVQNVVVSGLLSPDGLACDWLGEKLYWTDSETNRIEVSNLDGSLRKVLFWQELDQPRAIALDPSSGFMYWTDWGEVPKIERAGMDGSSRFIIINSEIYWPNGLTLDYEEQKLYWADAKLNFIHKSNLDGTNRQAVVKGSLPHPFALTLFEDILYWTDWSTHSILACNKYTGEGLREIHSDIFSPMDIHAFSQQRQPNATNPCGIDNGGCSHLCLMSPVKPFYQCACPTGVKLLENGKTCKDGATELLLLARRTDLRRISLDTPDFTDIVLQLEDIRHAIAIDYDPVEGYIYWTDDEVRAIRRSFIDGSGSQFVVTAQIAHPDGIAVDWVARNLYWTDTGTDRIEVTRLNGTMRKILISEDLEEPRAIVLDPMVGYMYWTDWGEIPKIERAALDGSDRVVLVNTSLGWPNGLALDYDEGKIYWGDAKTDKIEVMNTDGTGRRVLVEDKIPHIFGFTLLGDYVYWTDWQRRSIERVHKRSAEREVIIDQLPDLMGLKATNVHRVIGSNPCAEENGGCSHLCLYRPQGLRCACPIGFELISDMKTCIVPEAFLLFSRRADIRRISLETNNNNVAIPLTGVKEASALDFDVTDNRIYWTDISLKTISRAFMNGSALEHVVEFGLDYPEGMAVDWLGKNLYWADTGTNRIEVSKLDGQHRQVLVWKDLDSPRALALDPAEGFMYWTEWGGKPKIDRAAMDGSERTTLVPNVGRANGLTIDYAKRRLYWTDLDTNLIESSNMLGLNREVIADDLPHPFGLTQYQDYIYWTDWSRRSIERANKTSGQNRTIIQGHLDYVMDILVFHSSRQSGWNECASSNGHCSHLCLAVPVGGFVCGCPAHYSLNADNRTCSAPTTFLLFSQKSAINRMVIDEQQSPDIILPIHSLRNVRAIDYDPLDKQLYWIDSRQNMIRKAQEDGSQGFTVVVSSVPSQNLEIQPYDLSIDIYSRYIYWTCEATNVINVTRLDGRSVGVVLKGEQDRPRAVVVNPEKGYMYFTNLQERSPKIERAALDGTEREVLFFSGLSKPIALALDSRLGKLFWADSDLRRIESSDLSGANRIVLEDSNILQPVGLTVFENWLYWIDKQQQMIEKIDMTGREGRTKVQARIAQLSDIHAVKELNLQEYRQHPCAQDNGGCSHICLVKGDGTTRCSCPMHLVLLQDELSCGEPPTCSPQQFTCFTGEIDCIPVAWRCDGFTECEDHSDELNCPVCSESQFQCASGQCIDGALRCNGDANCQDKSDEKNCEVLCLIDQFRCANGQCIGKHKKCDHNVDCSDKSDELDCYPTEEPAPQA

[2] = biological target: FZD7 CRD, Fc-tagged (human, UniProt O75084 33-185)
[3] = biological target: T2, FZD1 CRD, Fc-tagged (human, UniProt Q9UP38 70-250)
T2 construct: domain: CRD; Bought; not shown: Fc tag of the purchased fusion

[4] = biological target: T3, FZD2 CRD, Fc-tagged (human, UniProt Q14332 24-190)
T3 construct: domain: CRD; Bought; not shown: Fc tag of the purchased fusion

T2 sequence (Q9UP38 70-250): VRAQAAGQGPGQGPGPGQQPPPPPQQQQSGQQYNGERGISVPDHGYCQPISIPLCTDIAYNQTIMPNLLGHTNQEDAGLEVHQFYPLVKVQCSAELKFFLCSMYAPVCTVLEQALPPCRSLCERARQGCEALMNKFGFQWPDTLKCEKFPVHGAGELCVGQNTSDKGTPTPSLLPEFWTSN

Kd [1]: 8.2 nM | Kd [2]: 0.027 nM | Kd [3]: 0.09 nM | Kd [4]: 0.084 nM
B1: F^P*+P*-L6^1+3 (bispecific antibody)
knob: DIQMTQSPSSLSASVGDRVTITCRASQSVSSAVAWYQQKPGKAPKLLIYSASSLYSGVPSRFSGSRSGTDFTLTISSLQPEDFATYYCQQGVYLFTFGQGTKVEIKGTTAASGSSGGSSSGAEVQLVESGGGLVQPGGSLRLSCAASGFNIGSSSIHWVRQAPGKGLEWVASIYSAFASTSYADSVKGRFTISADTSKNTAYLQMNSLRAEDTAVYYCARYHFPFGFALDYWGQGTLVTVSSLEDKTHTKVEPKTSDKTHTCPPCPAPELLGGPSVFLFPPKPKDTLMISRTPEVTCVVVDVSHEDPEVKFNWYVDGVEVHNAKTKPREEQYNSTYRVVSVLTVLHQDWLNGKEYKCKVSNKALPAPIEKTISKAKGQPREPMVFDLPPSREEMTKNQVSLWCMVKGFYPSDIAVEWESNGQPENNYKTTPPVLDSDGSFFLYSKLTVDKSRWQQGNVFSCSVMHEALHNHYTQKSLSLSPGKSGSETPGTSESATPESGGGEVQLVESGGGLVQPGGSLRLSCAASGFNISYSSIHWVRQAPGKGLEWVAYISSYYGYTYYADSVKGRFTISADTSKNTAYLQMNSLRAEDTAVYYCARAHYFPWAGAMDYWGQGTLVTVSSGGGGSDIQMTQSPSSLSASVGDRVTITCRASQSVSSAVAWYQQKPGKAPKLLIYSASSLYSGVPSRFSGSRSGTDFTLTISSLQPEDFATYYCQQYYWPITFGQGTKVEIK
hole: DIQMTQSPSSLSASVGDRVTITCRASQSVSSAVAWYQQKPGKAPKLLIYSASSLYSGVPSRFSGSRSGTDFTLTISSLQPEDFATYYCQQGVYLFTFGQGTKVEIKGTTAASGSSGGSSSGAEVQLVESGGGLVQPGGSLRLSCAASGFNIGSSSIHWVRQAPGKGLEWVASIYSAFASTSYADSVKGRFTISADTSKNTAYLQMNSLRAEDTAVYYCARYHFPFGFALDYWGQGTLVTVSSLEDKTHTKVEPKSSDKTHNCPPCPAPELLGGPSVFLFPPKPKDTLMISRTPEVTCVVVDVSHEDPEVKFNWYVDGVEVHNAKTKPREEQYNSTYRVVSVLTVLHQDWLNGKEYKCKVSNKALPAPIEKTISKAKGQPREPQVYTLPPIRELMTSNQVSLSCAVKGFYPSDIAVEWESNGQPENNYKTTPPVLDSDGSFFLVSKLTVDKSRWQQGNVFSCSVMHEALHNHYTQKSLSLSPGKSGSETPGTSESATPESGGGEVQLVESGGGLVQPGGSLRLSCAASGFNISSYYIHWVRQAPGKGLEWVASIYSSYGYTSYADSVKGRFTISADTSKNTAYLQMNSLRAEDTAVYYCARTVRGSKKPYFSGWAMDYWGQGTLVTVSSGGGGSDIQMTQSPSSLSASVGDRVTITCRASQSVSSAVAWYQQKPGKAPKLLIYSASSLYSGVPSRFSGSRSGTDFTLTISSLQPEDFATYYCQQYSWGPFTFGQGTKVEIK
